B1: bZIP domain of CREB (His‐SUMO‐CREB‐294‐341) (domain or fragment, UniProt P15337-1 294-341, looked up)
chain: REAARECRRKKKEYVKCLENRVAVLENQNKTLIEELKALKDLYCHKSD

Legend:
[1] = target: GST‐LMO4 (UniProt P61968); assay: ITC
[2] = target: T1, MBP‐Jacob‐262‐532 (UniProt Q9EPI6 262-532); assay: pull-down
T1 sequence (looked up): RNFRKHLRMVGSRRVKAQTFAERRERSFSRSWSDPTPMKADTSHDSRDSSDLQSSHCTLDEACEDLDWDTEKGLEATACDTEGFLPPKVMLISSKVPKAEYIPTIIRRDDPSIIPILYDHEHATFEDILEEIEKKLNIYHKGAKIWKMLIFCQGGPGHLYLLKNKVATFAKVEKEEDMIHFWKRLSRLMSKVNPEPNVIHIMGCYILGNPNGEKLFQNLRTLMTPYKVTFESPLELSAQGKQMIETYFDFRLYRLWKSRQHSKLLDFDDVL

| Molecule | Kd [1] [nM] | binding result [2] |
| --- | --- | --- |
| Jacob (protein of the ITC experiment) (from UniProt Q9EPI6 1-532) (natural protein) | 370 |  |
| B1 |  | binds |

Reference: PMC9929644 (The EMBO Journal, 2023)
